B1: antibody 4H8F1 (antibody, V domains shown)
VH: QVTLKESGPGILQPSQTLSLTCSFSGFSLSTSGMSVGWIRQPSGKGLEWLAHIWWNDDKFYNPALKSRLTISKDTSKNQIFLKIASVVTADSATYYCARIEEGWFAYWGQGTLVTVST
VL: SIVMTQTPKFLLVSVGDRVTITCKASQTMSNDVAWYQQKPGQSPKLLIYYASNRYTGVPDRFTGSGYGTDFTFTISTVQAEDLAVYFCQQDYSSPLTFGAGTKLELKR
notes: Mouse monoclonal from hybridoma, stated mouse IgG1/Kappa; also called 4H8F1-biotin; Antibody 1
B2: antibody 11D11B11 (antibody, mouse IgG2a, kappa, V domains shown)
VH: DVKLVESGGGLVKPGGSLKLSCAASGFTFSSFSMSWFRQTPDKRLEWVATISSGGSSTYYPDSVKGRFTISRDNAKNTLYLQMTSLKSEDTAIFYCRGGYYGNYDPLDYWGQGTSVTVSA
VL: DIVMIQSQKFMSTSVGDRVSITCTASHNVDSNVAWYQQKPGQSPQALIYSASYRYSGVPDRFTGSGSGTDFTLTINNVQSEDLAEYFCQQYNSYPLTFGGGTRLEIKR
notes: Mouse monoclonal from hybridoma, stated mouse IgG1/Kappa; Used unlabelled as capture and biotin-labelled as detection antibody; also called 11D11B11-biotin

Legend:
[1] = target: T1, recombinant human regenerating islet-derived protein 1α (REG1A) (human, UniProt P05451 23-166, limits assumed); experiment: sandwich ELISA; capture 21B11D2; REG1A 0 ng/mL (blank)
T1 construct: also called recombinant human REG1A; recombinant REG1A
T1 sequence (looked up): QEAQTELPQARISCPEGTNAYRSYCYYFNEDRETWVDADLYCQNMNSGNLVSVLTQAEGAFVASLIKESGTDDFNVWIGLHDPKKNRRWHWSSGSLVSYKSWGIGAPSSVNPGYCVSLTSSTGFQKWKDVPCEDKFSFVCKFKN
Procedure, shortened: (§1)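 In this sandwich ELISA, the capture monoclonal antibody was coated in PBS overnight at 4 °C, and blocking followed for 2 h at 37 °C. Recombinant human REG1A in basic diluent was incubated for 1 h at 37 °C, then a horseradish peroxidase-based detection antibody system and TMB substrate were applied for 15 min at 37 °C before the reaction was stopped with 0.2M sulfuric acid. The OD value is the dual-wavelength corrected absorbance. It equals the absorbance at 450 nm minus the absorbance at 620/630 nm.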

[2] = target: T1, recombinant human regenerating …; experiment: sandwich ELISA; capture 4H8F1; REG1A 3.70 ng/mL
Procedure, shortened: as §1

[3] = target: T1, recombinant human regenerating …; experiment: sandwich ELISA; capture 12F12A10; REG1A 3.70 ng/mL
Procedure, shortened: as §1

[4] = target: T1, recombinant human regenerating …; experiment: sandwich ELISA; capture 11D11B11; REG1A 0 ng/mL (blank)
Procedure, shortened: as §1

[5] = target: T1, recombinant human regenerating …; experiment: sandwich ELISA; capture 4H8F1; REG1A 1.23 ng/mL
Procedure, shortened: as §1

[6] = target: T1, recombinant human regenerating …; experiment: sandwich ELISA; capture 25F3C4; REG1A 11.11 ng/mL
Procedure, shortened: as §1

[7] = target: T1, recombinant human regenerating …; experiment: sandwich ELISA; capture 12F12A10; REG1A 11.11 ng/mL
Procedure, shortened: as §1

[8] = target: T1, recombinant human regenerating …; experiment: sandwich ELISA; capture 11D11B11; REG1A 1.23 ng/mL
Procedure, shortened: as §1

[9] = target: T1, recombinant human regenerating …; experiment: sandwich ELISA; capture 4H8F1; REG1A 0 ng/mL (blank)
Procedure, shortened: as §1

[10] = target: T1, recombinant human regenerating …; experiment: sandwich ELISA; capture 25F3C4; REG1A 0 ng/mL (blank)
Procedure, shortened: as §1

[11] = target: T1, recombinant human regenerating …; experiment: sandwich ELISA; capture 4H8F1; REG1A 11.11 ng/mL
Procedure, shortened: as §1

[12] = target: T1, recombinant human regenerating …; experiment: sandwich ELISA; capture 25F3C4; REG1A 100.00 ng/mL
Procedure, shortened: as §1

[13] = target: T1, recombinant human regenerating …; experiment: sandwich ELISA; capture 25F3C4; REG1A 1.23 ng/mL
Procedure, shortened: as §1

[14] = target: T1, recombinant human regenerating …; experiment: sandwich ELISA; capture 25F3C4; REG1A 3.70 ng/mL
Procedure, shortened: as §1

[15] = target: T1, recombinant human regenerating …; experiment: sandwich ELISA; capture 12F12A10; REG1A 33.33 ng/mL
Procedure, shortened: as §1

[16] = target: T1, recombinant human regenerating …; experiment: sandwich ELISA; capture 11D11B11; REG1A 100.00 ng/mL
Procedure, shortened: as §1

[17] = target: T1, recombinant human regenerating …; experiment: sandwich ELISA; capture 21B11D2; REG1A 1.23 ng/mL
Procedure, shortened: as §1

[18] = target: T1, recombinant human regenerating …; experiment: sandwich ELISA; capture 4H8F1; REG1A 33.33 ng/mL
Procedure, shortened: as §1

[19] = target: T1, recombinant human regenerating …; experiment: sandwich ELISA; capture 21B11D2; REG1A 11.11 ng/mL
Procedure, shortened: as §1

[20] = target: T1, recombinant human regenerating …; experiment: sandwich ELISA; capture 12F12A10; REG1A 100.00 ng/mL
Procedure, shortened: as §1

[21] = target: T1, recombinant human regenerating …; experiment: sandwich ELISA; capture 11D11B11; REG1A 33.33 ng/mL
Procedure, shortened: as §1

[22] = target: T1, recombinant human regenerating …; experiment: sandwich ELISA; capture 11D11B11; REG1A 3.70 ng/mL
Procedure, shortened: as §1

[23] = target: T1, recombinant human regenerating …; experiment: sandwich ELISA; capture 12F12A10; REG1A 1.23 ng/mL
Procedure, shortened: as §1

[24] = target: T1, recombinant human regenerating …; experiment: sandwich ELISA; capture 4H8F1; REG1A 100.00 ng/mL
Procedure, shortened: as §1

[25] = target: T1, recombinant human regenerating …; experiment: sandwich ELISA; capture 21B11D2; REG1A 3.70 ng/mL
Procedure, shortened: as §1

[26] = target: T1, recombinant human regenerating …; experiment: sandwich ELISA; capture 21B11D2; REG1A 33.33 ng/mL
Procedure, shortened: as §1

[27] = target: T1, recombinant human regenerating …; experiment: sandwich ELISA; capture 12F12A10; REG1A 0 ng/mL (blank)
Procedure, shortened: as §1

[28] = target: T1, recombinant human regenerating …; experiment: sandwich ELISA; capture 11D11B11; REG1A 11.11 ng/mL
Procedure, shortened: as §1

[29] = target: T1, recombinant human regenerating …; experiment: sandwich ELISA; capture 21B11D2; REG1A 100.00 ng/mL
Procedure, shortened: as §1

[30] = target: T1, recombinant human regenerating …; experiment: sandwich ELISA; capture 25F3C4; REG1A 33.33 ng/mL
Procedure, shortened: as §1

Binder | OD value [1] [OD] | OD value [2] [OD] | OD value [3] [OD] | OD value [4] [OD] | OD value [5] [OD] | OD value [6] [OD] | OD value [7] [OD] | OD value [8] [OD] | OD value [9] [OD] | OD value [10] [OD] | OD value [11] [OD] | OD value [12] [OD] | OD value [13] [OD] | OD value [14] [OD] | OD value [15] [OD] | OD value [16] [OD] | OD value [17] [OD] | OD value [18] [OD] | OD value [19] [OD] | OD value [20] [OD] | other results
B1 | 0.075 | 0.079 | 2.42 | 1.21 | 0.074 | 0.078 | 3.05 | 1.37 | 0.074 | 0.076 | 0.081 | 0.086 | 0.087 | 0.082 | 3.27 | 4.24 | 0.078 | 0.081 | 0.073 | 3.18 | OD value [21]: 4.48 OD; OD value [22]: 2.87 OD; OD value [23]: 1.3 OD; OD value [24]: 0.09 OD; OD value [25]: 0.077 OD; OD value [26]: 0.078 OD; OD value [27]: 0.068 OD; OD value [28]: 3.87 OD; OD value [29]: 0.084 OD; OD value [30]: 0.085 OD
B2 | 0.074 | 3.74 | 1.54 | 0.079 | 2.46 | 0.079 | 2.69 | 0.066 | 0.21 | 0.074 | 4.1 | 0.089 | 0.071 | 0.076 | 3.03 | 0.064 | 0.089 | 4.22 | 0.077 | 3.15 | OD value [21]: 0.064 OD; OD value [22]: 0.066 OD; OD value [23]: 0.934 OD; OD value [24]: 4.24 OD; OD value [25]: 0.069 OD; OD value [26]: 0.077 OD; OD value [27]: 0.075 OD; OD value [28]: 0.072 OD; OD value [29]: 0.075 OD; OD value [30]: 0.083 OD

Source: patent US20240241135A1 (SENBOLL BIOTECHNOLOGY, published 2024)
